What follows are sequences tested on Escherichia coli TOP10 (assay: shrunken log2 fold change of peptide-encoding DNA abundance (4.5 h post-induction vs induction); higher = less antimicrobial activity (less host growth inhibition)). Settings: time post-induction: 4.5 h; library: site-saturation at positions 5, 18, 19, 20.
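Note: peptides expressed intracellularly from a pBAD plasmid library in pooled LB shake-flask culture, induced with 0.3% L-arabinose, DNA abundance read by NGS, three biological replicates, DESeq2 with apeglm shrinkage.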

| Sequence | shrunken log2 fold change |
| --- | --- |
| RRIRWRPPRLPRPRPRPFAHPRP | -0.0296 |
| RRIRFRPPRLPRPRPRPHWDPRP | -0.21 |
| RRIRMRPPRLPRPRPRPAKPPRP | 0.453 |
| RRIRMRPPRLPRPRPRPNVAPRP | 0.099 |
| RRIRKRPPRLPRPRPRPMEGPRP | -0.01 |
| RRIRYRPPRLPRPRPRPHHKPRP | -0.319 |
| RRIRIRPPRLPRPRPRPAVSPRP | -0.0873 |
| RRIRTRPPRLPRPRPRPYGSPRP | -0.154 |
| RRIRSRPPRLPRPRPRPNPVPRP | -0.0484 |
| RRIRKRPPRLPRPRPRPQVVPRP | -0.0176 |
| RRIRSRPPRLPRPRPRPITCPRP | -0.286 |
| RRIRDRPPRLPRPRPRPRMVPRP | -0.177 |
| RRIRDRPPRLPRPRPRPDHIPRP | -0.0651 |
| RRIRGRPPRLPRPRPRPKDHPRP | 0.465 |
| RRIRERPPRLPRPRPRPWCSPRP | -0.177 |
| RRIRYRPPRLPRPRPRPPVKPRP | -0.102 |
| RRIRARPPRLPRPRPRPAMCPRP | 0.303 |
| RRIRLRPPRLPRPRPRPWDTPRP | 0.0949 |
| RRIRQRPPRLPRPRPRPCSTPRP | 0.0062 |
| RRIRGRPPRLPRPRPRPNGDPRP | 0.115 |
| RRIRERPPRLPRPRPRPRDVPRP | 0.0772 |
| RRIRHRPPRLPRPRPRPGPNPRP | 0.813 |

| Sequence | shrunken log2 fold change |
| --- | --- |
| RRIRVRPPRLPRPRPRPSQEPRP | -0.549 |
| RRIRRRPPRLPRPRPRPIVDPRP | 0.841 |
| RRIRDRPPRLPRPRPRPRLLPRP | 0.146 |
| RRIRWRPPRLPRPRPRPDQCPRP | 0.25 |
| RRIRGRPPRLPRPRPRPCTWPRP | 0.228 |
| RRIRNRPPRLPRPRPRPGKTPRP | 0.0837 |
| RRIRIRPPRLPRPRPRPHANPRP | -0.181 |
| RRIRIRPPRLPRPRPRPTESPRP | -0.433 |
| RRIRARPPRLPRPRPRPSYQPRP | -0.234 |
| RRIRERPPRLPRPRPRPSIPPRP | -0.758 |
| RRIRVRPPRLPRPRPRPSHLPRP | -0.443 |
| RRIRNRPPRLPRPRPRPQYMPRP | -1.16 |
| RRIRCRPPRLPRPRPRPEKNPRP | 0.165 |
| RRIRCRPPRLPRPRPRPTCYPRP | -0.154 |
| RRIRNRPPRLPRPRPRPQKCPRP | 0.0748 |
| RRIRRRPPRLPRPRPRPMAPPRP | 0.665 |
| RRIRQRPPRLPRPRPRPCCKPRP | -0.00783 |
| RRIRQRPPRLPRPRPRPDESPRP | 0.0454 |
| RRIRGRPPRLPRPRPRPIVTPRP | 0.583 |
| RRIRWRPPRLPRPRPRPCMVPRP | -0.155 |
| RRIRIRPPRLPRPRPRPDTQPRP | -0.167 |
| RRIRHRPPRLPRPRPRPPYRPRP | -0.399 |

| Sequence | shrunken log2 fold change |
| --- | --- |
| RRIRRRPPRLPRPRPRPTWAPRP | 0.7 |
| RRIRWRPPRLPRPRPRPEDNPRP | 0.547 |
| RRIRDRPPRLPRPRPRPCMPPRP | 0.0198 |
| RRIRKRPPRLPRPRPRPSGNPRP | 0.267 |
| RRIRTRPPRLPRPRPRPPMVPRP | 0.152 |
| RRIRHRPPRLPRPRPRPVNKPRP | -0.579 |
| RRIRVRPPRLPRPRPRPQPHPRP | 0.0498 |
| RRIRIRPPRLPRPRPRPIQKPRP | 0.00853 |
| RRIRSRPPRLPRPRPRPHHFPRP | 0.0761 |
| RRIRGRPPRLPRPRPRPSMAPRP | 0.749 |
| RRIRFRPPRLPRPRPRPNYQPRP | -0.467 |
| RRIRSRPPRLPRPRPRPINLPRP | -0.00701 |
| RRIRARPPRLPRPRPRPACTPRP | 0.668 |
| RRIRTRPPRLPRPRPRPYLTPRP | -0.171 |
| RRIRVRPPRLPRPRPRPARDPRP | 0.355 |
| RRIRGRPPRLPRPRPRPLYWPRP | -0.169 |
| RRIRDRPPRLPRPRPRPYDKPRP | -0.149 |
| RRIRNRPPRLPRPRPRPHFKPRP | -0.52 |
| RRIRERPPRLPRPRPRPKGHPRP | 0.092 |
| RRIRYRPPRLPRPRPRPTFKPRP | -0.445 |
| RRIRLRPPRLPRPRPRPWGRPRP | -0.0734 |
| RRIRTRPPRLPRPRPRPIMHPRP | -0.176 |

| Sequence | shrunken log2 fold change |
| --- | --- |
| RRIRYRPPRLPRPRPRPNFTPRP | -0.348 |
| RRIRQRPPRLPRPRPRPCYCPRP | -0.338 |
| RRIRPRPPRLPRPRPRPYCCPRP | -0.384 |
| RRIRARPPRLPRPRPRPLHMPRP | 1.15 |
| RRIRFRPPRLPRPRPRPQTQPRP | 0.0508 |
| RRIRIRPPRLPRPRPRPKLNPRP | 0.0573 |
| RRIRARPPRLPRPRPRPDFGPRP | 0.106 |
| RRIRIRPPRLPRPRPRPSYSPRP | -0.694 |
| RRIRTRPPRLPRPRPRPQLIPRP | -0.222 |
| RRIRHRPPRLPRPRPRPWNWPRP | -0.0135 |
| RRIRCRPPRLPRPRPRPVMFPRP | -0.154 |
| RRIRHRPPRLPRPRPRPPPSPRP | 0.87 |
| RRIRSRPPRLPRPRPRPEHAPRP | -0.0123 |
| RRIRDRPPRLPRPRPRPCYRPRP | -0.417 |
| RRIRYRPPRLPRPRPRPCITPRP | -0.00269 |
| RRIRIRPPRLPRPRPRPVPSPRP | -0.217 |
| RRIRYRPPRLPRPRPRPYILPRP | -0.264 |
| RRIRCRPPRLPRPRPRPFHEPRP | -0.917 |
| RRIRDRPPRLPRPRPRPFNEPRP | 0.0103 |
| RRIRGRPPRLPRPRPRPEGGPRP | 1.17 |
| RRIRDRPPRLPRPRPRPWHPPRP | -0.0206 |
| RRIRQRPPRLPRPRPRPDQNPRP | -0.377 |

| Sequence | shrunken log2 fold change |
| --- | --- |
| RRIRARPPRLPRPRPRPMTAPRP | 0.433 |
| RRIRGRPPRLPRPRPRPYKFPRP | -0.138 |
| RRIRTRPPRLPRPRPRPTDTPRP | -0.0527 |
| RRIRWRPPRLPRPRPRPRKFPRP | 0.295 |
| RRIRPRPPRLPRPRPRPVIRPRP | -0.074 |
| RRIRSRPPRLPRPRPRPGNIPRP | -0.281 |
| RRIRWRPPRLPRPRPRPDRFPRP | 0.0986 |
| RRIRRRPPRLPRPRPRPNDRPRP | 0.205 |
| RRIRCRPPRLPRPRPRPKRVPRP | 0.267 |
| RRIRQRPPRLPRPRPRPALTPRP | 0.128 |
| RRIRQRPPRLPRPRPRPRTQPRP | 0.0198 |
| RRIRYRPPRLPRPRPRPASHPRP | -1 |
| RRIRRRPPRLPRPRPRPGSHPRP | -0.154 |
| RRIRKRPPRLPRPRPRPIWQPRP | 0.163 |
| RRIRPRPPRLPRPRPRPCHTPRP | -0.498 |
| RRIRPRPPRLPRPRPRPCGCPRP | 0.098 |
| RRIRPRPPRLPRPRPRPVQFPRP | 0.197 |
| RRIRDRPPRLPRPRPRPVPNPRP | -0.0123 |
| RRIRMRPPRLPRPRPRPNCEPRP | 0.247 |
| RRIRTRPPRLPRPRPRPGYQPRP | -0.0553 |
| RRIRERPPRLPRPRPRPFWTPRP | -0.24 |
